Measurements published in the supplement of paper PMC9732359.
± gives the uncertainty stated by the source.

Assay: protein stability index of a GFP-peptide fusion (yeast GPS) (PSI 1-4); higher = more stable; sorted into four equal gates, so the index is relative within each strain
In short: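 For each peptide, the protein stability index sums the read frequency in every gate after multiplying it by the gate number. Read frequencies came from plasmids that were PCR-amplified from each gate and Illumina-sequenced, with reads assigned to strains by barcodes. The gates were four equal bins of GFP/Cherry fluorescence ratio applied to mid-log yeast in leucine-free medium carrying a pooled library of tiled 17-residue yeast protein peptides fused downstream of GFP on a Cherry-expressing plasmid.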

| Sequence | protein stability index (doa10∆) | protein stability index (pdr5∆) | protein stability index (san1∆) | protein stability index (ubr1∆) |
| --- | --- | --- | --- | --- |
| AAVETLYQDMAARHRAR [RPL20A] | 2.96 ± 0.065 | 3.23 ± 0.059 | 2.91 ± 0.051 | 2.91 ± 0.064 |
| LDPINLPLDSQDDEYVK [PRP8] | 2.83 ± 0.075 | 3.01 ± 0.066 | 3.14 ± 0.093 | 3.05 ± 0.045 |
| KTDQEEEREGTDQSTEE [CSL4] | 3.12 ± 0.16 | – | – | – |
| DILAKLFSLEKPNLNYF [SWI1] | 2.02 ± 0.056 | 1.96 ± 0.05 | 1.96 ± 0.063 | 2.08 ± 0.044 |
| VQCHGSFATATCVTCHW [SIR2] | 2.28 ± 0.047 | 2.55 ± 0.046 | 2.26 ± 0.045 | 2.51 ± 0.031 |
| RSYDLTRHQNTIHAKRK [RPN4] | 2.48 ± 0.061 | 2.48 ± 0.065 | 2.52 ± 0.071 | 2.53 ± 0.07 |
| EPFNAGIKYHATPPLKR [SMC1] | 3.05 ± 0.071 | 3.12 ± 0.071 | 2.79 ± 0.062 | 2.97 ± 0.045 |
| DLKFEPQGRQSTTFADC [RPC40] | 3.37 ± 0.19 | 3.3 ± 0.29 | – | 3.15 ± 0.075 |
| TKNIPITHRDLHYDKDY [SSN8] | 2.65 ± 0.043 | 2.87 ± 0.041 | 2.87 ± 0.03 | 2.83 ± 0.039 |
| DGSAIEDDDIRSRMLPT [SNF5] | 3.19 ± 0.086 | 3.03 ± 0.11 | 3.46 ± 0.12 | 3.34 ± 0.057 |
| KILITYGSSPKLLATST [SRB8] | 1.22 ± 0.039 | 1.33 ± 0.039 | 1.48 ± 0.091 | 1.53 ± 0.042 |
| VFLLLQAYFSRLELPVD [BRR2] | 1.59 ± 0.05 | 1.31 ± 0.043 | 1.26 ± 0.089 | 1.48 ± 0.041 |
| EDFDVEHFSDEETYEEK [RPO26] | 3.64 ± 0.11 | 3.05 ± 0.2 | 3.19 ± 0.22 | 3.45 ± 0.11 |
| HLDNSKSVFSSAGLDSA [RPN1] | 2.58 ± 0.064 | 2.69 ± 0.043 | 2.25 ± 0.063 | 2.15 ± 0.055 |
| SDNSVSVRLQVTKILPH [IRR1] | 2.86 ± 0.15 | 2.92 ± 0.12 | 2.74 ± 0.097 | 3.04 ± 0.074 |
| QFINLAGYKKLGLKFDD [QCR7] | 2.43 ± 0.2 | 3.61 ± 0.14 | – | – |
| IVSFIVNCFHEDTELYQ [YJL039C/NUP192] | 1.62 ± 0.051 | 1.71 ± 0.051 | 2.22 ± 0.055 | 2.46 ± 0.036 |
| EELKNMFLYILKHLEEM [RRI2] | 2.25 ± 0.16 | 1.93 ± 0.11 | 1.32 ± 0.11 | 1.73 ± 0.097 |
| ANKEKKRAEKAARKAEK [RPL24B] | 3.34 ± 0.095 | 3.36 ± 0.082 | 3.58 ± 0.066 | 3.52 ± 0.078 |
| ILAAAHRDAYSGGSVNL [PRE2] | 2.86 ± 0.078 | 3.2 ± 0.092 | 2.79 ± 0.062 | 2.89 ± 0.045 |
| SKKAEKTGTKPAAVFAE [RPL4B] | 2.52 ± 0.068 | 2.8 ± 0.084 | 2.44 ± 0.072 | 2.75 ± 0.061 |
| EMVENSSENNQIILAYI [SRP68] | 3.21 ± 0.1 | 3.11 ± 0.088 | 2.77 ± 0.08 | 3.35 ± 0.062 |
| ELTDKLSALNSEISSLK [SMC1] | 3.15 ± 0.11 | 2.76 ± 0.094 | 3.02 ± 0.074 | 2.89 ± 0.076 |
| APMRLATAALEIILKLC [YJL039C/NUP192] | 1.6 ± 0.064 | 2.06 ± 0.043 | 1.31 ± 0.087 | 2.4 ± 0.057 |
| KQGRIKNATEELLRLAN [CSN12] | 3.15 ± 0.17 | 3 ± 0.13 | 2.6 ± 0.14 | 3.36 ± 0.22 |
| IFFDEIDAVGGARFDDG [RPT1] | 3.01 ± 0.17 | 2.77 ± 0.15 | 3.24 ± 0.088 | 3.11 ± 0.089 |

| Sequence | protein stability index (doa10∆) | protein stability index (pdr5∆) | protein stability index (san1∆) | protein stability index (ubr1∆) |
| --- | --- | --- | --- | --- |
| MITKRILEVGALASIQT [RPN12] | 1.63 ± 0.083 | – | 2.14 ± 0.22 | – |
| EDTPANDSSATRSWRPP [RPB8] | 2.44 ± 0.24 | 2.88 ± 0.18 | 2.47 ± 0.2 | 2.95 ± 0.084 |
| YVGEVIKIVSDKKVLVK [RPT6] | 3.03 ± 0.058 | 2.9 ± 0.055 | 3.08 ± 0.067 | 2.94 ± 0.073 |
| HVLNKVTLASILTTAVG [RPN1] | 1.72 ± 0.14 | 1.41 ± 0.079 | 1.46 ± 0.21 | 1.31 ± 0.19 |
| DSTIGNSKVDMKYDIFA [IRR1] | 2.82 ± 0.071 | 2.78 ± 0.082 | 2.71 ± 0.078 | 2.88 ± 0.06 |
| ERDCVIAYGASQLLLER [RET1] | 1.18 ± 0.058 | 1.28 ± 0.057 | 1.24 ± 0.14 | 1.11 ± 0.051 |
| LVQLPKSAMDTFKSVSK [POP3] | 2.65 ± 0.052 | 2.85 ± 0.044 | 2.75 ± 0.047 | 2.54 ± 0.036 |
| GFGILEDGMIIDVNLNF [RRP40] | 3.08 ± 0.089 | 3.21 ± 0.075 | 3.19 ± 0.089 | 3.02 ± 0.076 |
| KPYYFSNNHKLSESDKK [RPN12] | 1.23 ± 0.063 | 1.47 ± 0.077 | 1.33 ± 0.13 | 1.22 ± 0.042 |
| AFFTYDAGVTFNKEQLN [ECM29] | 2.07 ± 0.052 | 3.08 ± 0.1 | 2.63 ± 0.083 | 2.58 ± 0.061 |
| DIFITPTPVVTISEKEQ [SSN2] | 1.76 ± 0.079 | 1.95 ± 0.077 | 1.48 ± 0.12 | 1.67 ± 0.069 |
| DDYEDQDDDDYVDTATA [IRR1] | 3.14 ± 0.08 | 3.47 ± 0.071 | 2.93 ± 0.093 | 3.22 ± 0.049 |
| VDPARRQILFKYPMYMQ [MED6] | 1.54 ± 0.069 | 1.78 ± 0.076 | 1.95 ± 0.17 | 1.47 ± 0.051 |
| KIYNFGELLHHPIMETI [RPN9] | 2.58 ± 0.068 | 2.6 ± 0.074 | 1.84 ± 0.11 | 2.91 ± 0.11 |
| LIIRNDSLSGAVIAAIM [RPT3] | 3.17 ± 0.11 | 3.09 ± 0.11 | 2.94 ± 0.21 | 3.12 ± 0.098 |
| TRLWGSVYYHKGNFRTK [SNU114] | 3.35 ± 0.064 | 3.46 ± 0.093 | 3.35 ± 0.06 | 3.32 ± 0.082 |
| QKETQKVTKIWSKESNY [PRP28] | 1.63 ± 0.04 | 2.1 ± 0.041 | 2.3 ± 0.047 | 1.95 ± 0.027 |
| WRLLFIDKFIMVVQKYK [GRR1] | 2.07 ± 0.054 | 1.79 ± 0.052 | 1.66 ± 0.083 | 2.38 ± 0.043 |
| LGEEHPLQVARCTKIIK [RPT1] | 2.18 ± 0.082 | 2.78 ± 0.073 | 2.75 ± 0.082 | 2.39 ± 0.085 |
| LPPEKIYSPLHSFIKML [SIR2] | 1.65 ± 0.034 | 1.88 ± 0.032 | 1.72 ± 0.05 | 1.71 ± 0.032 |
| LEYEISKLKKETASFIP [YIL149C/MLP2] | 2.66 ± 0.08 | 2.8 ± 0.085 | 2.89 ± 0.06 | 2.68 ± 0.059 |
| LPTDGGLTSRLQRQQRK [POP4] | 2.95 ± 0.16 | 3.3 ± 0.17 | 3.13 ± 0.12 | 3.38 ± 0.12 |
| EPKKPSFTFASSKTSQP [YOR098C/NUP1] | 2.93 ± 0.047 | 2.88 ± 0.037 | 2.9 ± 0.045 | 3.04 ± 0.031 |
| QQLRTWKRQISYFLKLL [SRB8] | 1.63 ± 0.049 | 2.18 ± 0.066 | 1.93 ± 0.088 | 1.91 ± 0.039 |
| YIESKFCPGEIVGKSNV [YMR129W/POM152] | 2.86 ± 0.1 | 2.92 ± 0.1 | – | 2.65 ± 0.07 |
| KGRNNESNNKKYPIFTG [YDL088C/ASM4] | 2.87 ± 0.064 | 2.95 ± 0.063 | 2.67 ± 0.059 | 2.9 ± 0.049 |
